In assay [1] the target is T1, recombinant mouse Trop-2-his protein (Cat.: 50922-M08H, Beijing Yiqiao Shenzhou Science and Technology Co., … (mouse, UniProt Q8BGV3 25-270)).
T1 construct: Bought protein; not shown: his tag
T1 sequence (looked up): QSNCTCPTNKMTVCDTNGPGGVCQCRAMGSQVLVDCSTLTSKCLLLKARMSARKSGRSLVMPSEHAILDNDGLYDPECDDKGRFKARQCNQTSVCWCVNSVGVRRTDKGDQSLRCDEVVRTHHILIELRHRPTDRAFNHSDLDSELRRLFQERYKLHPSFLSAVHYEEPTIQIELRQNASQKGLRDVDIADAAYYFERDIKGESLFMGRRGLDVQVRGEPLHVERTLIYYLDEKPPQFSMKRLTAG
Briefly: ELISA, plate coated with recombinant mouse Trop-2-his, HRP-goat anti-mouse IgG (Fc gamma), OD450/630. Here is the method:
(§1) Washed with PBS 3 times, the plates were blocked with the added 5% BSA PBS at 37° C. for 60 min, and then washed 3 times with PBST. The 15 purified murine antibodies were diluted to 1 μg/ml with PBS. Controls as follows were set: (1) Positive Control (PC): Sacituzumab (WHO Drug Information (Vol. 31, No. 1, 2017), SEQ ID NO: 39 and SEQ ID NO: 40), a version having murine IgG constant region, […]; (2) Negative Control (NC): an antibody from an irrelevant hybridoma, 1 μg/ml; (3) blank control: PBS. After incubation at 37° C. for 60 min, the plates were washed 4 times with PBST. […] Afterwards, the plates were washed with PBST 4 times, and TMB substrate was added for color development at 37° C. for 10 min. Then 2M HCl was added to stop reaction; and absorbances at 450 nm and at 630 nm (as reference wavelength) were read, and A450 nm-630 nm values of the wells in the plates were recorded.
On the technique in general: ELISA stands for enzyme-linked immunosorbent assay.

In assay [2] the target is T2, recombinant human Trop-2-his protein (ACCESSION NO.: NP_002344.2, AA 1-274) (human, UniProt P09758 27-274).
T2 construct: range 27-274; also called recombinant human Trop-2 protein; recombinant human Trop-2 extracellular domain; not shown: his tag
T2 sequence (looked up): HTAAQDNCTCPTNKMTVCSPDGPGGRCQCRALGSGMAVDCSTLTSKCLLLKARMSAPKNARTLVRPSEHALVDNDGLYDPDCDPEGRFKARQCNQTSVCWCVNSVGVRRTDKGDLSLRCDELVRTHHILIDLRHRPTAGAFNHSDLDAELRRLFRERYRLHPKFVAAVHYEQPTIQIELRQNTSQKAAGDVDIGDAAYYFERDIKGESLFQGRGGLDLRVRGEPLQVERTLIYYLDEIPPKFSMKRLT
Briefly: ELISA, coated human Trop-2-his 1 µg/ml. Here is the method:
(§2) Washed with PBS 3 times, the plates were blocked with the added 5% BSA PBS at 37° C. for 60 min, and then washed 3 times with PBST. Different concentrations of h23-12 (serial dilutions of 14 concentrations obtained through 3-fold serially diluting a solution with an initial concentration of 10 μg/ml), h4-3 (serial dilutions of 12 concentrations obtained through 3-fold serially diluting a solution with an initial concentration of 3 μg/ml), and Sacituzumab (serial dilutions of 12 concentrations obtained through 3-fold serially diluting a solution with an initial concentration of 3 μg/ml) were added into the plates, with each concentration provided in a parallel well. The plates were incubated at 37° C. for 60 min, and then were washed 4 times with PBST. 1:5000 dilution of H1RP-anti-human Fc (Cat.: 109-035-098, Jackson ImmunoResearch) was added into the plates for incubation at 37° C. for 30 min. Afterwards, the plates were washed with PBST 4 times, and TMB substrate was added for color development at 37° C. for 10 min. Then 2M HCl was added to stop reaction; and absorbances at 450 nm and at 630 nm (as reference wavelength) were read, and A450 nm-630 nm values of the wells in the plates were recorded.

Assay [3] addresses T3, recombinant cynomolgus Trop-2-his protein (ACCESSION NO.: UniProtKB-A0A2K5UE71, AA 1-272) (cynomolgus, UniProt A0A2K5UE71 1-272).
T3 construct: The printed range begins at residue 1; not shown: his tag
T3 sequence: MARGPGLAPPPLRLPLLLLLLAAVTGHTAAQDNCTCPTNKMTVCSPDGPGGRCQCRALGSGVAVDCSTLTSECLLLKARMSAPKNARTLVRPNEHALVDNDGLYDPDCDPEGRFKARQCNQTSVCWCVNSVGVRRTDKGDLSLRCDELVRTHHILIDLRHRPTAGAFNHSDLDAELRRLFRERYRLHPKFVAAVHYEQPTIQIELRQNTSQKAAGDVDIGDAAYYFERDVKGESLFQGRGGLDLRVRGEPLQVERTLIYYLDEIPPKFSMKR
The assay can be described thus: ELISA, coated cynomolgus Trop-2-his 1 µg/ml. As to the method:
as §2

For assay [4], the target named is T2, recombinant human Trop-2-his protein …. Briefly: BLI, antibody on AHC sensor, Trop-2-his 23, 30, 45, 60 nM. Here is the method:
Affinities of the antibodies were determined by an assay including capturing Fc fragments of the antibodies with anti-human IgG Fc capture (AHC) biosensors using Octet QKe system instrument from Fortebio.
For the assay, each of the antibodies (h23-12, h4-3, and control antibody Sacituzumab) was diluted to 4 μg/ml in PBS, and was allowed to flow through the surface of an AHC biosensor (Cat.: 18-0015, PALL) for 120 s. Recombinant human Trop-2-his protein (ACCESSION NO.: NP_002344.2, AA 1-274) was used as a mobile phase. The Trop-2-his protein was used in following concentrations which corresponded to different antibodies: in case of h23-12, the Trop-2 was used in concentrations of 23, 30, 45, and 75 nM; in case of h4-3, it was used in concentrations of 23, 30, 45, and 60 nM; and in case of Sacituzumab, it was used in concentrations of 23, 30, 45, and 75 nM. The binding time was 100 s and the dissociation time was 300 s. When the assay was finished, data from which the response values of blank control had been deducted were fitted to a 1:1 Langmuir binding model using software, and then kinetic constants for antigen-antibody binding were calculated.
For orientation: BLI is a label-free optical method that tracks binding on a fibre tip over time.

For assay [5], the target named is T1, recombinant mouse Trop-2-his protein …. The assay can be described thus: ELISA, coated mouse Trop-2-his 1 µg/ml. As to the method:
as §2

Assay [6] concerns the target T2, recombinant human Trop-2-his protein …. Briefly: BLI, antibody on AHC sensor, Trop-2-his 60 nM. The method in brief:
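Humanized antibodies at 4 μg/ml in PBS captured via Fc on anti-human IgG Fc (AHC) biosensors for 120 s; 60 nM Trop-2-his (AA 1-274) as analyte, 100 s association, 300 s dissociation. Blank-subtracted responses fitted to 1:1 Langmuir model for kinetic constants.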

Assay [7] concerns the target T1, recombinant mouse Trop-2-his protein …. The assay can be described thus: ELISA, coated mouse Trop-2-his, purified murine antibody 1 µg/ml. Here is the method:
as §1

B1: PC (antibody, V domains shown)
VH: QVQLQQSGSELKKPGASVKVSCKASGYTFTNYGMNWVKQAPGQGLKWMGWINTYTGEPTYTDDFKGRFAFSLDTSVSTAYLQISSLKADDTAVYFCARGGFGSSYWYFDVWGQGSLVTVSS
VL: DIQLTQSPSSLSASVGDRVSITCKASQDVSIAVAWYQQKPGKAPKLLIYSASYRYTGVPDRFSGSGSGTDFTLTISSLQPEDFAVYYCQQHYITPLTFGAGTKVEIK
notes: not the human IgG1 Sacituzumab m5; also called Positive Control (PC); Sacituzumab, a version having murine IgG constant region; not shown: murine IgG heavy-chain constant region and murine light-chain constant region of this version
In the case of B1, the binding result in assay [1] is “no binding (tested: 1 µg/ml (paragraph 111 prints '1 g/ml'))”.

B2: h4-3-1 (antibody, human IgG1, kappa, V domains shown)
VH: EVQLVQSGPEVKKPGASVKVSCKASGFTFTDYVIGWVRQAPGQGLEWIGEIYLGSGTIYYTEKFKGRVTMTADTSTSTAYMELSSLRSEDTAVYYCARGSIFPFDYWGQGTLVTVSS
VL: DIQLTQSPSSLSASVGDRVTITCSASSSVSYMYWYQQKPGKAPKLLIYDTSTLASGVPSRFSGSGSGTDFTLTISSLQPEDFATYYCQQWSSYPYTFGQGTKLEIKR
notes: also called CDR grafted antibody 4-3
What is called EC50 is the concentration at which the effect is half-maximal. What is called Kd is the equilibrium constant for the complex coming apart. The term koff denotes the first-order rate constant of dissociation. One may read the kon as a measure of how fast the partners come together. As to B2, the half-maximal effective concentration (EC50) was determined as 0.0469 nM in assay [2] and 0.0461 nM in assay [3]. In addition, the Kd in assay [4] worked out at 0.545 nM; in assay [6], 0.304 nM. Moreover, the koff in assay [4] was 0.000146 s⁻¹. Also, the on-rate constant (kon) in assay [4] amounted to 267000 M⁻¹ s⁻¹. In addition, the binding result in assay [5] is reported as “no binding (tested: up to 3 µg/ml)”.

B3: m17-1 (antibody, mouse IgG1, V domains shown)
VH: EVKLVESGGVLVKPGGSLKLSCAASGFTFSDSAMSWVRQTPEKRLEWVASISRGDDTYYPDSVKGRITISRDFARNILYLQMTSLRSEDTAMYYCTRDRFGFAYWGQGTLVTVSA
VL: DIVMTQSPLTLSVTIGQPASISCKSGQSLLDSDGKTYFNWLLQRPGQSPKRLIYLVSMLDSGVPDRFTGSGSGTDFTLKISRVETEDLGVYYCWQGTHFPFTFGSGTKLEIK
notes: also called murine antibody 17-1
Turning to B3, in assay [7], the binding result is recorded as “binds”.

The values above are taken from US20240092930A1 (MABWELL SHANGHAI BIOSCIENCE, published 2024).
